Reference: article PMC12262686 (bioRxiv, 2025)

B1: SPOP D77E, full-length (natural protein)
chain: MSRVPSPPPPAEMSSGPVAESWCYTQIKVVKFSYMWTINNFSFCREEMGEVIKSSTFSSGANDKLKWCLRVNPKGLEEESKDYLSLYLLLVSCPKSEVRAKFKFSILNAKGEETKAMESQRAYRFVQGKDWGFKKFIRRDFLLDEANGLLPDDKLTLFCEVSVVQDSVNISGQNTMNMVKVPECRLADELGGLWENSRFTDCCLCVAGQEFQAHKAILAARSPVFSAMFEHEMEESKKNRVEINDVEPEVFKEMMCFIYTGKAPNLDKMADDLLAAADKYALERLKVMCEDALCSNLSVENAAEILILADLHSADQLKTQAVDFINYHASDVLETSGWKSMVVSHPHLVAEAYRSLASAQCPFLGPPRKRLKQS
B2: SPOP R99W (natural protein)
chain: MSRVPSPPPPAEMSSGPVAESWCYTQIKVVKFSYMWTINNFSFCREEMGEVIKSSTFSSGANDKLKWCLRVNPKGLDEESKDYLSLYLLLVSCPKSEVWAKFKFSILNAKGEETKAMESQRAYRFVQGKDWGFKKFIRRDFLLDEANGLLPDDKLTLFCEVSVVQDSVNISGQNTMNMVKVPECRLADELGGLWENSRFTDCCLCVAGQEFQAHKAILAARSPVFSAMFEHEMEESKKNRVEINDVEPEVFKEMMCFIYTGKAPNLDKMADDLLAAADKYALERLKVMCEDALCSNLSVENAAEILILADLHSADQLKTQAVDFINYHASDVLETSGWKSMVVSHPHLVAEAYRSLASAQCPFLGPPRKRLKQS
B3: SPOP E50K (natural protein)
chain: MSRVPSPPPPAEMSSGPVAESWCYTQIKVVKFSYMWTINNFSFCREEMGKVIKSSTFSSGANDKLKWCLRVNPKGLDEESKDYLSLYLLLVSCPKSEVRAKFKFSILNAKGEETKAMESQRAYRFVQGKDWGFKKFIRRDFLLDEANGLLPDDKLTLFCEVSVVQDSVNISGQNTMNMVKVPECRLADELGGLWENSRFTDCCLCVAGQEFQAHKAILAARSPVFSAMFEHEMEESKKNRVEINDVEPEVFKEMMCFIYTGKAPNLDKMADDLLAAADKYALERLKVMCEDALCSNLSVENAAEILILADLHSADQLKTQAVDFINYHASDVLETSGWKSMVVSHPHLVAEAYRSLASAQCPFLGPPRKRLKQS
B4: SPOP R121Q (natural protein)
chain: MSRVPSPPPPAEMSSGPVAESWCYTQIKVVKFSYMWTINNFSFCREEMGEVIKSSTFSSGANDKLKWCLRVNPKGLDEESKDYLSLYLLLVSCPKSEVRAKFKFSILNAKGEETKAMESQQAYRFVQGKDWGFKKFIRRDFLLDEANGLLPDDKLTLFCEVSVVQDSVNISGQNTMNMVKVPECRLADELGGLWENSRFTDCCLCVAGQEFQAHKAILAARSPVFSAMFEHEMEESKKNRVEINDVEPEVFKEMMCFIYTGKAPNLDKMADDLLAAADKYALERLKVMCEDALCSNLSVENAAEILILADLHSADQLKTQAVDFINYHASDVLETSGWKSMVVSHPHLVAEAYRSLASAQCPFLGPPRKRLKQS
B5: SPOP Y87F (natural protein)
chain: MSRVPSPPPPAEMSSGPVAESWCYTQIKVVKFSYMWTINNFSFCREEMGEVIKSSTFSSGANDKLKWCLRVNPKGLDEESKDYLSLFLLLVSCPKSEVRAKFKFSILNAKGEETKAMESQRAYRFVQGKDWGFKKFIRRDFLLDEANGLLPDDKLTLFCEVSVVQDSVNISGQNTMNMVKVPECRLADELGGLWENSRFTDCCLCVAGQEFQAHKAILAARSPVFSAMFEHEMEESKKNRVEINDVEPEVFKEMMCFIYTGKAPNLDKMADDLLAAADKYALERLKVMCEDALCSNLSVENAAEILILADLHSADQLKTQAVDFINYHASDVLETSGWKSMVVSHPHLVAEAYRSLASAQCPFLGPPRKRLKQS
B6: SPOP E47A (natural protein)
chain: MSRVPSPPPPAEMSSGPVAESWCYTQIKVVKFSYMWTINNFSFCREAMGEVIKSSTFSSGANDKLKWCLRVNPKGLDEESKDYLSLYLLLVSCPKSEVRAKFKFSILNAKGEETKAMESQRAYRFVQGKDWGFKKFIRRDFLLDEANGLLPDDKLTLFCEVSVVQDSVNISGQNTMNMVKVPECRLADELGGLWENSRFTDCCLCVAGQEFQAHKAILAARSPVFSAMFEHEMEESKKNRVEINDVEPEVFKEMMCFIYTGKAPNLDKMADDLLAAADKYALERLKVMCEDALCSNLSVENAAEILILADLHSADQLKTQAVDFINYHASDVLETSGWKSMVVSHPHLVAEAYRSLASAQCPFLGPPRKRLKQS
B7: SPOP D140N (natural protein)
chain: MSRVPSPPPPAEMSSGPVAESWCYTQIKVVKFSYMWTINNFSFCREEMGEVIKSSTFSSGANDKLKWCLRVNPKGLDEESKDYLSLYLLLVSCPKSEVRAKFKFSILNAKGEETKAMESQRAYRFVQGKDWGFKKFIRRNFLLDEANGLLPDDKLTLFCEVSVVQDSVNISGQNTMNMVKVPECRLADELGGLWENSRFTDCCLCVAGQEFQAHKAILAARSPVFSAMFEHEMEESKKNRVEINDVEPEVFKEMMCFIYTGKAPNLDKMADDLLAAADKYALERLKVMCEDALCSNLSVENAAEILILADLHSADQLKTQAVDFINYHASDVLETSGWKSMVVSHPHLVAEAYRSLASAQCPFLGPPRKRLKQS
B8: SPOP W131L (natural protein)
chain: MSRVPSPPPPAEMSSGPVAESWCYTQIKVVKFSYMWTINNFSFCREEMGEVIKSSTFSSGANDKLKWCLRVNPKGLDEESKDYLSLYLLLVSCPKSEVRAKFKFSILNAKGEETKAMESQRAYRFVQGKDLGFKKFIRRDFLLDEANGLLPDDKLTLFCEVSVVQDSVNISGQNTMNMVKVPECRLADELGGLWENSRFTDCCLCVAGQEFQAHKAILAARSPVFSAMFEHEMEESKKNRVEINDVEPEVFKEMMCFIYTGKAPNLDKMADDLLAAADKYALERLKVMCEDALCSNLSVENAAEILILADLHSADQLKTQAVDFINYHASDVLETSGWKSMVVSHPHLVAEAYRSLASAQCPFLGPPRKRLKQS
B9: SPOP R45W (natural protein)
chain: MSRVPSPPPPAEMSSGPVAESWCYTQIKVVKFSYMWTINNFSFCWEEMGEVIKSSTFSSGANDKLKWCLRVNPKGLDEESKDYLSLYLLLVSCPKSEVRAKFKFSILNAKGEETKAMESQRAYRFVQGKDWGFKKFIRRDFLLDEANGLLPDDKLTLFCEVSVVQDSVNISGQNTMNMVKVPECRLADELGGLWENSRFTDCCLCVAGQEFQAHKAILAARSPVFSAMFEHEMEESKKNRVEINDVEPEVFKEMMCFIYTGKAPNLDKMADDLLAAADKYALERLKVMCEDALCSNLSVENAAEILILADLHSADQLKTQAVDFINYHASDVLETSGWKSMVVSHPHLVAEAYRSLASAQCPFLGPPRKRLKQS
B10: SPOP M117V (natural protein)
chain: MSRVPSPPPPAEMSSGPVAESWCYTQIKVVKFSYMWTINNFSFCREEMGEVIKSSTFSSGANDKLKWCLRVNPKGLDEESKDYLSLYLLLVSCPKSEVRAKFKFSILNAKGEETKAVESQRAYRFVQGKDWGFKKFIRRDFLLDEANGLLPDDKLTLFCEVSVVQDSVNISGQNTMNMVKVPECRLADELGGLWENSRFTDCCLCVAGQEFQAHKAILAARSPVFSAMFEHEMEESKKNRVEINDVEPEVFKEMMCFIYTGKAPNLDKMADDLLAAADKYALERLKVMCEDALCSNLSVENAAEILILADLHSADQLKTQAVDFINYHASDVLETSGWKSMVVSHPHLVAEAYRSLASAQCPFLGPPRKRLKQS
B11: SPOP E78K, full-length (natural protein)
chain: MSRVPSPPPPAEMSSGPVAESWCYTQIKVVKFSYMWTINNFSFCREEMGEVIKSSTFSSGANDKLKWCLRVNPKGLDKESKDYLSLYLLLVSCPKSEVRAKFKFSILNAKGEETKAMESQRAYRFVQGKDWGFKKFIRRDFLLDEANGLLPDDKLTLFCEVSVVQDSVNISGQNTMNMVKVPECRLADELGGLWENSRFTDCCLCVAGQEFQAHKAILAARSPVFSAMFEHEMEESKKNRVEINDVEPEVFKEMMCFIYTGKAPNLDKMADDLLAAADKYALERLKVMCEDALCSNLSVENAAEILILADLHSADQLKTQAVDFINYHASDVLETSGWKSMVVSHPHLVAEAYRSLASAQCPFLGPPRKRLKQS
B12: SPOP D130E (natural protein)
chain: MSRVPSPPPPAEMSSGPVAESWCYTQIKVVKFSYMWTINNFSFCREEMGEVIKSSTFSSGANDKLKWCLRVNPKGLDEESKDYLSLYLLLVSCPKSEVRAKFKFSILNAKGEETKAMESQRAYRFVQGKEWGFKKFIRRDFLLDEANGLLPDDKLTLFCEVSVVQDSVNISGQNTMNMVKVPECRLADELGGLWENSRFTDCCLCVAGQEFQAHKAILAARSPVFSAMFEHEMEESKKNRVEINDVEPEVFKEMMCFIYTGKAPNLDKMADDLLAAADKYALERLKVMCEDALCSNLSVENAAEILILADLHSADQLKTQAVDFINYHASDVLETSGWKSMVVSHPHLVAEAYRSLASAQCPFLGPPRKRLKQS
B13: SPOP E47K, full-length (natural protein)
chain: MSRVPSPPPPAEMSSGPVAESWCYTQIKVVKFSYMWTINNFSFCREKMGEVIKSSTFSSGANDKLKWCLRVNPKGLDEESKDYLSLYLLLVSCPKSEVRAKFKFSILNAKGEETKAMESQRAYRFVQGKDWGFKKFIRRDFLLDEANGLLPDDKLTLFCEVSVVQDSVNISGQNTMNMVKVPECRLADELGGLWENSRFTDCCLCVAGQEFQAHKAILAARSPVFSAMFEHEMEESKKNRVEINDVEPEVFKEMMCFIYTGKAPNLDKMADDLLAAADKYALERLKVMCEDALCSNLSVENAAEILILADLHSADQLKTQAVDFINYHASDVLETSGWKSMVVSHPHLVAEAYRSLASAQCPFLGPPRKRLKQS
B14: SPOP W131G (natural protein)
chain: MSRVPSPPPPAEMSSGPVAESWCYTQIKVVKFSYMWTINNFSFCREEMGEVIKSSTFSSGANDKLKWCLRVNPKGLDEESKDYLSLYLLLVSCPKSEVRAKFKFSILNAKGEETKAMESQRAYRFVQGKDGGFKKFIRRDFLLDEANGLLPDDKLTLFCEVSVVQDSVNISGQNTMNMVKVPECRLADELGGLWENSRFTDCCLCVAGQEFQAHKAILAARSPVFSAMFEHEMEESKKNRVEINDVEPEVFKEMMCFIYTGKAPNLDKMADDLLAAADKYALERLKVMCEDALCSNLSVENAAEILILADLHSADQLKTQAVDFINYHASDVLETSGWKSMVVSHPHLVAEAYRSLASAQCPFLGPPRKRLKQS
B15: SPOP V51E, full-length (natural protein)
chain: MSRVPSPPPPAEMSSGPVAESWCYTQIKVVKFSYMWTINNFSFCREEMGEEIKSSTFSSGANDKLKWCLRVNPKGLDEESKDYLSLYLLLVSCPKSEVRAKFKFSILNAKGEETKAMESQRAYRFVQGKDWGFKKFIRRDFLLDEANGLLPDDKLTLFCEVSVVQDSVNISGQNTMNMVKVPECRLADELGGLWENSRFTDCCLCVAGQEFQAHKAILAARSPVFSAMFEHEMEESKKNRVEINDVEPEVFKEMMCFIYTGKAPNLDKMADDLLAAADKYALERLKVMCEDALCSNLSVENAAEILILADLHSADQLKTQAVDFINYHASDVLETSGWKSMVVSHPHLVAEAYRSLASAQCPFLGPPRKRLKQS

Target: the molecule itself
Assay: negative-stain TEM
B1: binds. B2: binds. B3: binds. B4: binds. B5: binds. B6: binds. B7: binds. B8: binds. B9: binds. B10: binds. B11: binds. B12: binds. B13: binds. B14: binds. B15: binds.
